Laboratory results: patent US6037158A, “Alcohol dehydrogenase and its use for the enzymatic production of chiral hydroxy compounds” (priority 1996, dated 2000)
Where two headings read alike, the source gives them in different places.

Assays:
[1] = target: T1, alcohol dehydrogenase from L. brevis (Levilactobacillus brevis, UniProt Q84EX5); assay: biochemical; assay type: biochemical; settings: 10 mM keto compound
T1 sequence (Q84EX5 2-252): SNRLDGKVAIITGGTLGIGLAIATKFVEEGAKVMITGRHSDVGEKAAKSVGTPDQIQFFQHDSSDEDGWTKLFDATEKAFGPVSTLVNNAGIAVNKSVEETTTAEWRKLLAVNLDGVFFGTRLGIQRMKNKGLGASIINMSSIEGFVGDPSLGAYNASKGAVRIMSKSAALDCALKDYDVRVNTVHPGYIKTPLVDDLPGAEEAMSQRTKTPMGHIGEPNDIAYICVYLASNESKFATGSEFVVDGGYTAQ
Method: A series of other ketones and keto esters were used instead of acetophenone and it was tested whether these can be reduced by enzyme catalysis.
The following test mixture was used for this:
970 μl triethanolamine buffer (50 mM; pH 7.0, containing 10 mM keto compound)
20 μl NADPH (0.19 mM in the test)
Some of the ketones were also tested at a concentration of 1 mM in order to verify a possible substrate inhibition at 10 mM.

[2] = target: T2, alcohol dehydrogenase from Lactobacillus brevis (Levilactobacillus brevis, UniProt Q84EX5); assay type: biochemical; settings: l. brevis alcohol dehydrogenase, 24 h, 5000 µM, pH 7
T2 construct: same enzyme regenerates NADPH with isopropanol
T2 sequence (Q84EX5 2-252): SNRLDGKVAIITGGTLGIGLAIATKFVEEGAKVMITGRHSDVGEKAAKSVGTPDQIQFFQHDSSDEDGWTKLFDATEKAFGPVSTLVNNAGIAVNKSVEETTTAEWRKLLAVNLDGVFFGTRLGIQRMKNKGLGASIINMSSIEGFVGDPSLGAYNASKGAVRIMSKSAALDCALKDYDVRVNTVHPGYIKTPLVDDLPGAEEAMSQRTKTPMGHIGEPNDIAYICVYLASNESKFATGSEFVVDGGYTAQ
Method: Purified enzyme (example 2C) and the necessary coenzyme (NADP) were used for the enzyme-catalysed synthesis of (R)-phenylethanol from acetophenone. The oxidized co-enzyme was continuously regenerated by isopropanol which was simultaneously present so that the reaction only required catalytic amounts of coenzyme. In detail the mixture contained (the final concentrations of the components in the test are listed in brackets): 20 μl NADP (0.05 mM), 7.7 μl isopropanol (0.1 M), 0.6 μl acetophenone (5 mM), 921.7 μl triethanolamine buffer (50 mM; pH 7.0, containing 1 mM MgCl2) and 50 μl alcohol dehydrogenase from Lactobacillus brevis (4.5 units). This mixture with a total volume of 1 ml was incubated for 24 hours at 30° C., then a sample was analysed by means of gas chromatography. For this 100 μl was removed, shaken out with 100 μl chloroform, the phases were separated by centrifugation and an aliquot was taken from the lower phase (chloroform) for the GC.
The separation conditions for the separation of (R)- and (S)-phenylethanol on a gas chromatograph: stationary phase: Lipodex E, CD column (Macherey and Nagel, Duren), mobile phase: helium, injection volumes: 1 μl detection: FID, temperature: 110° C. Under these conditions the substrate acetophenone is eluted at 10.5 min, (S)-phenylethanol at 13.8 min and (R)-phenylethanol at 14.2 min. […]

[3] = system: whole cells of Lactobacillus brevis; assay: Reduction of ketones with whole cells; assay type: cell-based; settings: after 2 h incubation at 30° C., 10 mM acetophenone, 50 mg cells, 0.1 M glucose
Method: In addition ketones can be reduced to chiral alcohols using whole cells of L. brevis. […] The coenzyme regeneration can be achieved by isopropanol or by metabolizable substrates such as glucose.
Test mixture: 50 mg cells of L. brevis (wetweight after centrifugation) is suspended in 860 μl triethanolamine buffer (50 mM; pH 7.50; addition of 1 MM MgCl^2+) which contains 0.1 M glucose and 10 mM acetophenone. Samples are analysed by means of gas chromatography. […] Since a quantification by means of GC separation on a chiral stationary phase had been carried out, it was possible to show at the same time that the phenylethanol that forms is of high optical purity but no quantifiable (S)-alcohol could be detected. The optical purity is considerably >95% for (R)-alcohol.

[4] = pH stability of the alcohol dehydrogenase (30 min incubation, then standard acetophenone test); assay type: physicochemical; settings: for Activity: 30 min
Method: The dependence of the activity of the enzyme when stored in buffers with various pH values was examined in the range of pH 4 to 11. Depending on the buffer capacity various buffers in the pH range of 4 to 11 were prepared and the homogeneous enzyme was incubated therein for 30 minutes. 1 μl thereof was removed and added to the normal test reagent mixture of 970 μl triethanolamine buffer (100 mM; pH 7.0 containing 11 mM acetophenone) and 20 μl NADPH (final concentration 0.19 mM). The reaction was monitored for 1 minute at 30° C. and 340 nm.

[5] = Temperature stability of the alcohol dehydrogenase (30 min at temperature, measured at 30° C.); assay type: physicochemical; settings: for temperature of maximum stability: 30 min
Method: The temperature stability in the range of 25 to 70° C. was determined in an analogous manner to that described under A. The homogeneous enzyme solution was subjected for 30 min to the recited temperatures and subsequently measured directly at 30° C. with the above test mixture. […] In contrast the ADH from L. kefir is only stable up to 40° C. with a maximum at 37° C., afterwards the activity decreases rapidly. The maximum for this enzyme is at 37° C.

[6] = Temperature optimum of enzyme activity; assay type: biochemical
[7] = Standard enzyme test of purified enzyme (acetophenone, NADPH); assay type: biochemical
Method: The process for the isolation and purification of the ADH enzyme proceeds essentially via the following process steps: disruption of the cultured cells, such as by glass beads, carrying out hydrophobic chromatography or interaction chromatography and followed by subsequent anion exchange and affinity chromatography. In particular it has proven to be advantageous when all homogenization and elution buffers contain from about 0.5 to about 5 mM magnesium. In this connection a Mg^2+ concentration of about 1 mM has proven to be particularly advantageous. In this manner an enzyme is obtained which has a specific activity of at least 400 U/mg and in many cases up to 500 U/mg.
The enzyme was released from the cells by wet-grinding with the aid of glass beads (0.3 mm), but can also be achieved by any other method for disrupting bacterial cells. The bacterial mass is diluted to a 40% suspension with 0.1 M acetate buffer pH 4.0+1 mM MgCl2 supplemented with an antifoaming agent (polypropylene glycol). This was subjected to a 20 minute disruption while cooling continuously in a disintegrator (IMA Co.) at 4000 rpm with addition of glass beads in a ratio of 1:2. 8 g bacteria yielded 10 ml crude extract with a volume activity of 40 U/ml and a protein content of ca. 3 mg/ml. […]

[8] = listed as enzyme according to the invention

Molecule: CC(=O)c1ccccc1 [acetophenone]
- Activity ([1]; 0.19 mM NADPH, pH 7.0, purified enzyme diluted 1:10): 3.26 U/ml
- activity at 10000 µM ([1]; relative to acetophenone = 100, read-out: Relative act.): 100%
- substrate converted [2]: more than 95%
- substrate remaining (GC) [3]: no longer detectable

B1: alcohol dehydrogenase from Lactobacillus brevis: stable R-specific NADP-dependent alcohol dehydrogenase purified to homogeneity from Lactobacillus brevis DSM 20054 (protein)
chain: MSNRLDGKVAIITGGTLGIGLAIATKFVEEGAKVMITGRHSDVGEKAAKSVGTPDQIQFFQHDSSDEDGWTKLFDATEKAFGPVSTLVNNAGIAVNKSVEETTTAEWRKLLAVNLDGVFFGTRLGIQRMKNKGLGASIINMSSIEGFVGDPSLGAYNASKGAVRIMSKSAALDCALKDYDVRVNTVHPGYIKTPLVDDLPGAEEAMSQRTKTPMGHIAEPNDIAYICVYLASNESKFATGSEFVVDGGYTAQ
- Activity ([4]; pH 4.0, Na acetate/acetic acid): 6.86 U/ml
- pH value of maximum stability (larger maximum) ([4]; pH 4 to 11, 30 min): 9.0
- pH value of the smaller maximum of pH stability ([4]; pH 4 to 11, 30 min): 5.5
- pH value of maximum stability (larger maximum) ([4]; pH 4 to 11, 30 min, listed as ADHs according to the invention): about 9.0
- Activity ([4]; pH 4.5, Na acetate/acetic acid): 6.22 U/ml
- Activity ([4]; pH 5.0, MES/NaOH): 7.04 U/ml
- Activity ([4]; pH 5.5, MES/MaOH): 8.73 U/ml
- Activity ([4]; pH 6.0, triethanolamine/NaOH): 5.58 U/ml
- Activity ([4]; pH 6.5, triethanolamine/NaOH): 5.80 U/ml
- Activity ([4]; pH 7.0, triethanolamine/NaOH): 6.57 U/ml
- Activity ([4]; pH 7.5, Tris/HCl): 5.04 U/ml
- Activity ([4]; pH 8.0, Tris/HCl): 3.83 U/ml
- Activity ([4]; pH 8.5, Tris/HCl): 8.42 U/ml
- Activity ([4]; pH 9.0, Tris/HCl): 17.11 U/ml
- Activity ([4]; pH 10.0, glycine/NaOH): 1.25 U/ml
- Activity ([4]; pH 11.0, glycine/NaOH): 2.43 U/ml
- temperature at which the enzyme is inactivated by 50% (thermal deactivation) [5]: about 65 °C
- retained activity ([5]; 50 mM MES buffer, about 30 minutes, between 25° C. and 60° C.): over 95%
- temperature of maximum stability [5]: 40 °C
- temperature of maximum stability [5, 8]: ca. 40 °C
- act. (temperature stability) ([5]; 30 min at 25° C.): 9.43 U/ml
- act. (temperature stability) ([5]; 30 min at 30° C.): 8.74 U/ml
- act. (temperature stability) ([5]; 30 min at 37° C.): 12.06 U/ml
- act. (temperature stability) ([5]; 30 min at 40° C.): 12.15 U/ml
- act. (temperature stability) ([5]; 30 min at 42° C.): 11.16 U/ml
- act. (temperature stability) ([5]; 30 min at 45° C.): 10.81 U/ml
- act. (temperature stability) ([5]; 30 min at 47° C.): 8.23 U/ml
- act. (temperature stability) ([5]; 30 min at 50° C.): 8.37 U/ml
- act. (temperature stability) ([5]; 30 min at 60° C.): 8.51 U/ml
- act. (temperature stability) ([5]; 30 min at 70° C.): 0.56 U/ml
- optimal test temperature (activity maximum) [6]: 50 °C
- optimal test temperature (activity maximum) [6, 8]: ca. 50 °C
- act. (temperature optimum) ([6]; test temperature 25° C.): 10.31 U/ml
- act. (temperature optimum) ([6]; test temperature 30° C.): 9.66 U/ml
- act. (temperature optimum) ([6]; test temperature 37° C.): 9.76 U/ml
- act. (temperature optimum) ([6]; test temperature 40° C.): 17.78 U/ml
- act. (temperature optimum) ([6]; test temperature 42° C.): 16.93 U/ml
- act. (temperature optimum) ([6]; test temperature 45° C.): 18.06 U/ml
- act. (temperature optimum) ([6]; test temperature 47° C.): 19.13 U/ml
- act. (temperature optimum) ([6]; test temperature 50° C.): 31.46 U/ml
- act. (temperature optimum) ([6]; test temperature 55° C.): 24.48 U/ml
- act. (temperature optimum) ([6]; test temperature 60° C.): 23.69 U/ml
- act. (temperature optimum) ([6]; test temperature 65° C.): 1.98 U/ml
- act. (temperature optimum) ([6]; test temperature 70° C.): 0.58 U/ml
- specific activity [7]: at least 400 U/mg
